Biological target: T1, orexin receptor type 1 (OX1R), recombinant, stably expressed on HEK cells (human, UniProt O43613 1-425)
T1 construct: whole, on cells; also called HEK-OX1R; hypocretin receptor type 1
T1 sequence (looked up): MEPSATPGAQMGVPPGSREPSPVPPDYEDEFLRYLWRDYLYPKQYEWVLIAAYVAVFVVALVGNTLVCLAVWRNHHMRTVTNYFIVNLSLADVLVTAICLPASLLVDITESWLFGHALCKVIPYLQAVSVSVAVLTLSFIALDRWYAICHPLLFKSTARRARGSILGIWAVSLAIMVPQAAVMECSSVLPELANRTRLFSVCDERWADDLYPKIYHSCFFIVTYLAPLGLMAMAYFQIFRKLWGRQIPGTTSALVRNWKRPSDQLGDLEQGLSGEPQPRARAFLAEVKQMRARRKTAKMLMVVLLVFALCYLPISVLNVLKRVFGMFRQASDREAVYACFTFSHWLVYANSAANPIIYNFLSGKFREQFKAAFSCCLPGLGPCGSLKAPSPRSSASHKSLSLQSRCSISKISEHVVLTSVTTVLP
Assay: competitive inhibition of 125I-OxA binding to HEK-OX1R cells

B1: C2 antibody (antibody, V domains shown)
VH: EVQLVESGGSLVKPGGSLRLSCAASGFTFSNSYMNWVRQAPGKGLEWISSIYGSSRYIDYADFVKGRFTISRDNATNSLYLQMNSLRAEDTAVYYCVRSSSYYGSGMDVWGRGTLVTVSS
VL: QSVLTQPASVSGSPGQSITISCAGTSSDVGGYGSVSWYQQHPGKAPKLMIYYDSYRPSGVSNRFSGSKSGNTASLTISGLQAEDEADYYCSSNTNSSTRVFGGGTKLAVLG
notes: Human antibody from phage display; also called anti-OX1R antibody C2
B1 gave an IC50 of about 5 µM.
